Source: the nanobody polyreactivity screen of Harvey et al. (2022)

Test: yeast display, Sf9 membrane polyspecificity reagent, FACS + sequencing; frameworks hold sequencing errors
Method in brief: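 Nanobodies from a synthetic yeast display library (Saccharomyces cerevisiae BJ5465), induced 36–48 hours with galactose, were stained 1 hour at 4 °C with 10% biotinylated, detergent-solubilized Sf9 membrane reagent, enriched on streptavidin microbeads, then FACS-sorted. Anti-HA (expression) and streptavidin (reagent binding) fluorescence set low and high (top ~1%) gates. Polyreactivity labels come from the gate of origin. Genes were colony-PCR amplified, MiSeq 2 × 250 sequenced and filtered by CDR length.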
For “QVQLVESGGGLVQAGGSLRLSCAASGGTFGQYAMGWYRQAPGKERELVAAITSSGGRTYYADSVKGRFTISRDNAKNTVYLQMNSLKPEDTAVYYCAADVQSRYVGEGDYWGQGTQVTVSS”, the “polyreactivity (PSR sort gate)” value was “high polyreactivity”.
With “QDQLVESGGGLVQAGGSLRLSCAASGFIFFGYAMGWYRQAPGKERELVAAITSGGSTYYADSVKGRFTISRDNAKNTVYLQMNSLKPEDTAVYYCAAVLWYGSKRYGYWGQGTQVTVSS” the “polyreactivity (PSR sort gate)” value was “high polyreactivity”.
For “QVQLAESGGGLVQAGGSLRLSCAASGIIFYFYAMGWYRQAPGKERELVAAISGTGGRTYYADSVKGRFTISRDNAKNTVYLQMNSLKPEDTAVYYCNADDTPVPSIRFDYWGQGTQVTVSS”, the “polyreactivity (PSR sort gate)” value was “low polyreactivity”.
For “QVQLVESGGGLVQAGGSLRLSCAASGSIFYGNTMGWYRQAPGKERELVAAIDYRGDSTYYADSVKGRFTISRDNAKNTVYLQMNSLKPVDTAVYYCAADQTPVGQVYYGTLSIRDYWGQGTQVSVSS”, the “polyreactivity (PSR sort gate)” value was “low polyreactivity”.
In the case of “QVQLVESGGCLVQAGGSLRLSCAASGSTFTIYVMGGYRQAPGKERELVAAITWSDGITYYADSVKGRFTISRDNAKNTVYLQMNSLKPEDTAVYYCRDSHPSYRPGTVRYDYWGQGTQVNVSS”, the “polyreactivity (PSR sort gate)” value is reported as “low polyreactivity”.
With “QVQLVESGGGLVQAGGSLRLSCAASGGIFLPNAMGWYRQAPGKERELVAAISTGGSTNYADSVKGRFTISRDNAKNTVYLQMNSLKPEDTAVYYCAATPYNYVGFSRGGDYWGQGTQVTVSS” the “polyreactivity (PSR sort gate)” value was “low polyreactivity”.
In the case of “QVHLVESGGGLVQAGGSLRLSCAASGFTFYSYAMGWYRPPPGKEREFVAAITIGGGSTNYADSVKGRFTISRDIAKNTVYLQMNSLKPEDTAVYYCNVDYTLHFGYWGQGTQVTVSS”, the “polyreactivity (PSR sort gate)” value is reported as “low polyreactivity”.
In the case of “QVQLVESGGGLVQAGGSLRLICAASGRIFGSYVMGWYRQAPGKERELVAAISFSGDTTYYADSVKGRFTISRDNAKNTVYLQMNSLKPDDTAVYYCAAEFPQGYYAFKYDYWGQGTQVTVSS”, the “polyreactivity (PSR sort gate)” value is reported as “high polyreactivity”.
With “QDQLEESVGGLVQAGGSLRLSCAASGRIFVYNAMGWYRQAPGKERELVAAISKGGGSTYYADSVKGRFTISRDNAKNTVYLQMNSLKPEDTAVYYCAAVVSGRYWGYYSWGQGTQVTVSS” the “polyreactivity (PSR sort gate)” value was “high polyreactivity”.
In the case of “QVQLVESGGGLVQAGGSLRLSCAASGRTFAIYAMGWYRQAPGKERELVAGITIRGGRTYYADSVKGRFTISRYIAKNTVYLQMNSLKPEDTAVYYCNARGWYEYGWGQGTQVTVSS”, the “polyreactivity (PSR sort gate)” value is reported as “high polyreactivity”.
With “QVQLVETGGGLVQAGGSLRLSCAASGNTFAGNAMGWYRQAPGKERELVAAISRSGVTTRYADSVKGRFTISRDNATNTVYLQMNSLKPEDTAVYYCNADPRLRQNRDYWGQGTQVTVSS” the “polyreactivity (PSR sort gate)” value was “high polyreactivity”.
In the case of “QVQLVESGGGLVQAGGSLRLSCAASGFTLKSYAMGWYRQAPGKERELVASISRRGGSTYYADSVKGRFTISRDNAKNTVYLQMNSLKPEDTAVYYCNADYVRYPGNAYDYWGQGTQVTVSS”, the “polyreactivity (PSR sort gate)” value is reported as “high polyreactivity”.
With “QVQLVESGGGLVQAGGSLRLSCAASGRIFAVYAMGWYRQAPGKEREFVAAISYSGGITYYADSVKGRFTISRDTAKNTVYLQMNSLKPEDTAVYYCNAYYYFWGQGTQVTVSS” the “polyreactivity (PSR sort gate)” value was “low polyreactivity”.
With “QVQLVESGGGLVQAGGSLRLSCAASGRTFRVYAMGWYRPAPGKERELVATITSSGGSTYYADSVKGRFTISRDNAKNTVYLQMNSLKPEDTAVYYCNVSVYYNYDSSYYYWGQGTQVTVSS” the “polyreactivity (PSR sort gate)” value was “low polyreactivity”.
With “QVQLVESGGGLVQAGGSLRLSCAASGYIFADYAMGWYRQAPGKEREFVARIRYRDGSTYYADSVKGRFTISRDNAKNTVYLQMNSLKPEDTAVYYCAAQLGRYSYYPMDYWGKGTQVTVSS” the “polyreactivity (PSR sort gate)” value was “high polyreactivity”.
For “QVQLVESGGGLVQAGGSLRLSCAASGRIFSYYDMGWYRQAPGKEREFVAGITWNGGSTYYADSVKGRFTISRDNAKNTVYLQMNSLKPEDTAVYYCAAGVWRTRDWTYYYWGQGTQVTVSS”, the “polyreactivity (PSR sort gate)” value was “high polyreactivity”.
With “QVQLVESGGGLVQAGGTLRLSCAASGSTFGWYAMGWYRQAPGKVREFVAAIRGGGSSTYYADSVKWRFTISRDNAKNSVSLQKNSLKQEVTAVYYCAAVTSQLYGKRYYYWGQGTQGTVSS” the “polyreactivity (PSR sort gate)” value was “high polyreactivity”.
With “QVQLVESGGGLVQAGGSLRLSCAASGFTFLSYTMGWYRQEPGKERELVASITASGTRTYYADSVKGRFTISRDNAKNTVYLQMNSLKPDDTAVYYCAARRSGSGSHDYGYWGQGTQVTVSS” the “polyreactivity (PSR sort gate)” value was “low polyreactivity”.
With “QVQLVESGGGLVQAGGSLRLSCAPSGFTFVFYAMGWYRQAPGKERELVAAISSRGGSTYYADSVKGRFTISRDNAKNTVYLQMNSLKPEDTAVYYCNVVSTYWTTYEEYYWGQGTQVTVSS” the “polyreactivity (PSR sort gate)” value was “high polyreactivity”.
With “QVQLVESGGGLVQAGGSLRLSCAASGSISPANTMGWYRQAPGKEREFVAGISRRGGRTYYADSVKGRFTISRDNAKNTVYLQMNSLIPEDTAVYYCATALIVRGPSRYEYWGQGTQVTVSS” the “polyreactivity (PSR sort gate)” value was “high polyreactivity”.
In the case of “QVQLVESGGGLVQAGGSLRLSCAASGRTFYLYAMGWYRQAPGTERELVADITSGGSTYYADSVKGRFTISRDNAKNTVYLQMNSLKPEDTAVYYCAADWVTFYSYTEYDYWGQGTQVTVSS”, the “polyreactivity (PSR sort gate)” value is reported as “low polyreactivity”.
With “QVQLVESGGGLVQAGGSLRLSCAASGSTFTFNAMGWYRQAPGKERELVAAIRWSTGGTYYADSVKGRFTISRDNAKNTVYLQMNSLKPEDTAVYYCAAQFVPYFYFSKYDYWGQGTQVTVSS” the “polyreactivity (PSR sort gate)” value was “low polyreactivity”.
With “QVQLVESGGGLVQAGGSLRLICAASGIIFQYYAMGWYRQAPGKERELVAAISWSGGSTYYADSVKGRFTISRDNAKNTVYLQMNSVKPEETAVYYCNAVYYSRIVGVRIYDYWGQGTQVTVSS” the “polyreactivity (PSR sort gate)” value was “low polyreactivity”.
In the case of “QVQLVESGGGLVQAGGSLRLSCAASGSTLSAYVMGWYRQAPGKERELVAAITRGGNTYYADSVKGRFTISRDNAKNTVYLQMNSLKPEDTAVYYCAARTYVSYGYYTRNYWGQGTQVTVSS”, the “polyreactivity (PSR sort gate)” value is reported as “high polyreactivity”.
For “QVQLVESGGGLVQAGRSLRLSCAASGRTSAYYAMGWYRQPPGKERELVAGITRGGRTNYADSVKGRFTISRDNAKNTVYLQLNSLKPEDTAVYYCAAKYVYYLNSRTSGYWGQGSQVTVSS”, the “polyreactivity (PSR sort gate)” value was “high polyreactivity”.
With “QVQLVESGGGLVQAGGSLRLSCAASGITFQHYAMGWYRQAPGKERELVAAITWRGSNTYYADSVKGRFTISRDNAKNTVYLQMNSLKPEDTAVYYCAAVLSLRSRNYWGHGTQVTVSS” the “polyreactivity (PSR sort gate)” value was “high polyreactivity”.
With “QVQLVESGGGLVQAGGSLRLSCAASGSTFYLYAMGWYRQAPGKERELVAAISYSDGSTYYADSVKGRFTISRDNAKNTVYLQMNSMKPEDTAVYYCAAQHYVRSSIPGFIYYYWGQGTQVNVSS” the “polyreactivity (PSR sort gate)” value was “high polyreactivity”.
With “QVQLVESGGGLVQAGGSLRLSCAASGITLYDNAMGWYRQEPGKERELVAAINVNDVSTYYADSVKGRFTISRDNAKNTVYLQMNSLKPEDTAVYYCAADSLYYGIGYWVVRYDYWGQGTQVTVSS” the “polyreactivity (PSR sort gate)” value was “low polyreactivity”.
In the case of “QVQLVESGGGLVQAGGSLRLSCAASGSIFNYYAMGWYRQAPGKERELVAAITSSDGRTFYADSVKGRFTISRDNAKNKVYLQMNSLKPEDTAFYYCAAEWTSRYSTYEYWGQGTQVTVSS”, the “polyreactivity (PSR sort gate)” value is reported as “low polyreactivity”.
In the case of “QVQLVESGGGLVQAGGSLRLSCAASGSTFTYYAMGWYRQAPGKERELVAAISRSGGNTYYADSVKGRFTISRDNAKNTVYLQMNSLKKEDTAVYYCAAYRQVYGFDYWGQGTQVTVSS”, the “polyreactivity (PSR sort gate)” value is reported as “high polyreactivity”.
With “QVQLVESGGGLVQAGGSLRLSCAASGGIFGTYTMGWYRQAPGKERELVAAIRSSSGRTYYADSVKGRFTISRDTAKNTVYLQMNSLKPEDTAVYYCNRAYTIQDDYWGQGTQVTVSS” the “polyreactivity (PSR sort gate)” value was “high polyreactivity”.
With “QVQLVESGGGLVQAGGSLRLSCAASGRIFGHYAMGWYRHAPGKERELVAAINWRGGSTYYADSVKGRFTISRDNAKNTVYVQMKSLKPEETGVYYCAADWTKARDSIYDYWGQGSQVTVSS” the “polyreactivity (PSR sort gate)” value was “low polyreactivity”.
With “QVHLVESGGGLVQAGGSLRLSCAASGSTFPYYAMGWYRQAPGKEREWVAAITSSASTYFADSVKGRFTISRDNAKNTVYLQMNSLKPEDTAVYYCAVRSPYRLSSWRVGYWGQGTQVTVSS” the “polyreactivity (PSR sort gate)” value was “high polyreactivity”.
For “QVQLVESGAGLVQAGGSLRLSSAASGGTFGHYVMGWYRPAPGKERELVAVISRRGGSTYYADSVKGRFTISRDTAKNTVYLQMNSLKPEDTAVYYCAAYQDVSYFKYSPYDYWGQGTQVTVSS”, the “polyreactivity (PSR sort gate)” value was “high polyreactivity”.
In the case of “QVQHVESGGGLVQAGGSLRLSCAASGSTFDYYAMGWYRQAPGKERELVAAISDSARSTFYADSVKGRFTISRDNAKNTVYLQMNSLKPEDTAVYYCAAYFWSYWRSEGYSWGQGTKVTVSS”, the “polyreactivity (PSR sort gate)” value is reported as “high polyreactivity”.
With “QVQLVESGGRLVQAGGSLRLSCAASGSILTSYPMGWNRQAPGKERELVAAISTTGGSTYYADSVKGRFTISRDNAKNTVYLQMNSLKPEDTAVYYCAKASGSGGEMDYWGQGTQVTVSS” the “polyreactivity (PSR sort gate)” value was “low polyreactivity”.
In the case of “QVQLVESGGGLVQAGGSLRLSCAASGFTFSFYAMGWYRQAPGKERELVATIRSGGRTYYADSVKGRFTISRDNAKNTVYLQRNSLKPEDTAVYYCAADDHYGRGFQYYYWGQGTQVTVSS”, the “polyreactivity (PSR sort gate)” value is reported as “high polyreactivity”.
With “QVQLVESGGGLVQAGVSLRLSCAASGIIFAGYVMGWYRQAPGKARELVAAISYRGGSTNYADSVKGRFTISRDNAKNTVYLQMNSLKPEDTAVYYCNRYSRDSRYGYLKFGYDYWGQGTQVTVSS” the “polyreactivity (PSR sort gate)” value was “high polyreactivity”.
In the case of “QVQLVESGGGLVQAGGSLRLSCAASGSTFWDYDMGWYRQAPGKERELVASIRNGGSTNYADSVKGRFTISRDNAKNTVYLQMNSLKPEDTAVYYCAADRQPVYPSLGVYWDYGHDYWGQGTQVTVSS”, the “polyreactivity (PSR sort gate)” value is reported as “low polyreactivity”.
For “QVQLVESGGGLVQAGGSLRLSCAASGSTFYVNAMGWYRQAPGKERYADSVKGRFTISRDNAKNTVYLQMNSLKPEDTAVYYCAAKVPEPPSLDESDYWGQGTQVTVSS”, the “polyreactivity (PSR sort gate)” value was “low polyreactivity”.
With “QVQHVESGGGLVQAGGSLRLSCAASGGTFYGYAMGCYRQAPGKERELVAVITYSGGSTYYADSVKGRFTISRDNAKNTVYLQMYSLKPEDTAVYYCAADVKYGYDWGQGTQVTVSS” the “polyreactivity (PSR sort gate)” value was “high polyreactivity”.
